# Experimental data from US20090298778A1.
# Non-standard residues stand in square brackets, D forms with d. No end group written: not given here. Cit = NC(=O)NCCC[C@H](N)C(=O)O
# Assays:
# [1] = target: mixture of ACPA-positive IgGs (IgG fraction of an equal-parts mixture of 38 sera from patients suffering from RA having a high serum ACPA titer); test: competition ELISA: soluble competitor preincubated 2 h with IgG ACPA+ (16 µg/ml), binding to coated citrullinated fibrinogen
# [2] = target: mixture of ACPA-positive IgGs (IgG fraction of an equal-parts mixture of 38 sera from patients suffering from RA having a high serum ACPA titer); test: cell-based or functional assay
percentage inhibition (plateau value) [1] [%],amount of TNF-α secreted by macrophages; peptide at 0.8 mg/ml as competitor of IC formation on coated citrullinated fibrinogen [2] [pg/mL],amount of TNF-α secreted by macrophages; peptide at 4 mg/ml as competitor of IC formation on coated citrullinated fibrinogen [2] [pg/mL],Binder
70,–,–,"mixture of α36-50cit38, 42 and β60-74cit60, 72, 74 peptides (also: mixture of two free peptides, not a complex) peptide 1: GP[Cit]VVE[Cit]HQSACKDS peptide 2: [Cit]PAPPPISGGGY[Cit]A[Cit]-NH2"
15,–,–,"GP[Cit]VVE[Cit]HQSACKDS [α36-50cit38, 42 peptide]"
60,40,< 20,"[Cit]PAPPPISGGGY[Cit]A[Cit]-NH2 (N-terminus assumed; SMILES CC[C@H](C)[C@H](NC(=O)[C@@H]1CCCN1C(=O)[C@@H]1CCCN1C(=O)[C@@H]1CCCN1C(=O)[C@H](C)NC(=O)[C@@H]1CCCN1C(=O)[C@@H](N)CCCNC(N)=O)C(=O)N[C@@H](CO)C(=O)NCC(=O)NCC(=O)NCC(=O)N[C@@H](Cc1ccc(O)cc1)C(=O)N[C@@H](CCCNC(N)=O)C(=O)N[C@@H](C)C(=O)N[C@@H](CCCNC(N)=O)C(N)=O) [β60-74cit60, 72, 74 peptide]"
